Results as given in patent US20080227698A1, “OLIGOPEPTIDES FOR TREATMENT OF OSTEOPOROSIS AND OTHER BONE DISEASES AND METHODS THEREOF” (Washington University, priority 2005, published 2008).

Experiments:
[1] = molecular target: T1, LRP6 (Homo sapiens, UniProt O75581); assay: ^125I-Mesd cell surface ligand binding to LRP6-transduced HT1080 cells; design: plasmid pCS-Myc-hLRP6 containing the full-length human LRP6 cDNA; HA; expressed in transfected cells; host or cells: human HT1080 cells, stably transduced (pLNCX2 retroviral vector)
Experimental: To examine whether Mesd binds with high affinity to […] at the cell surface, cell surface ligand binding experiments were performed with cells stably transduced with LRP6 cDNA. Human HT1080 cells, which express undetectable levels of LRP6, were transduced with a viral vector alone (pLNCX2) or with vector containing LRP6 cDNA (Li, Y., Oncogene 23: 9129-9135, 2004) and used for ^125I-Mesd binding (FIG. 1A). ^125I-Mesd (5 nM) reached maximal binding after 2 hours incubation at 4° C. with LRP6-expressing HT1080 cells (FIG. 1A).
(A) Time course of ^125I-Mesd (5 nM) binding to LRP6-transduced HT1080 cells and the control cells. Assay was carried out for the indicated periods at 4° C. in the absence (total) or presence of 500 nM Mesd (non-specific). (B) Saturation binding of ^125I-Mesd to LRP6-transduced HT1080 cells and the control cells. Assay was carried out at indicated concentrations for 3 hours at 4° C. in the absence (total) or presence (non-specific) of 500 nM Mesd. (C) Scatchard plots of data in B. All values are the average of triple determinations with the s.d. indicated by error bars.
(§1) Cells (2×10^5) were seeded into 12-well dishes 1 day prior to assay. Ligand-binding buffer (minimal Eagle's medium containing 0.6% BSA with a different concentration of radioligand, 0.6 ml/well) was added to cell monolayers, in the absence or the presence of 500 nM unlabeled RAP or 500 nM unlabeled Mesd, followed with incubation for 0-4 hours at 4° C. Thereafter, overlying buffer containing unbound ligand was removed, and cell monolayers were washed and lysed in low-SDS lysis buffer (62.5 mM Tris-HCl pH 6.8, 0.2% SDS, 10% v/glycerol) and counted.

[2] = molecular target: T1, LRP6; assay: ^125I-RAP binding to LRP6-transduced HT1080 cells and control cells; design: plasmid pCS-Myc-hLRP6 containing the full-length human LRP6 cDNA; HA; expressed in transfected cells; host or cells: human HT1080 cells, stably transduced (pLNCX2 retroviral vector)
Experimental: as §1
Receptor-associated protein (RAP) binds with high affinity to LRP, megalin, VLDLR and apoER2, and with a lower affinity to the LDLR (Bu, G., Int. Rev. Cytol. 209, 79-116. 2001). To determine whether RAP and Mesd bind to identical, overlapping, or different sites on the receptors, binding and competition analysis of these two chaperones with HT1080 cells stably expressing LRP6 was performed.
In FIG. 8A, binding of ^125I-RAP (5 nM) to LRP6-transduced HT1080 cells and the control cells was carried out for 4 hours at 4° C. in the absence (total) or presence of 500 nM RAP, or 500 nM Mesd. In FIG. 8B, binding of ^125I-Mesd (5 nM) to LRP6-transduced HT1080 cells was carried out for 2 hours at 4° C. in the absence (total) or presence of various concentrations of RAP or 500 nM Mesd. (C) LRP6-mediated ^125I-Mesd (5 nM) degradation was carried out for 4 hours at 37° C. in the absence or presence of 500 nM Mesd or 500 nM RAP. Values are the means of triple determinations with the s.d. indicated by error bars.

T1 sequence (O75581 20-1613): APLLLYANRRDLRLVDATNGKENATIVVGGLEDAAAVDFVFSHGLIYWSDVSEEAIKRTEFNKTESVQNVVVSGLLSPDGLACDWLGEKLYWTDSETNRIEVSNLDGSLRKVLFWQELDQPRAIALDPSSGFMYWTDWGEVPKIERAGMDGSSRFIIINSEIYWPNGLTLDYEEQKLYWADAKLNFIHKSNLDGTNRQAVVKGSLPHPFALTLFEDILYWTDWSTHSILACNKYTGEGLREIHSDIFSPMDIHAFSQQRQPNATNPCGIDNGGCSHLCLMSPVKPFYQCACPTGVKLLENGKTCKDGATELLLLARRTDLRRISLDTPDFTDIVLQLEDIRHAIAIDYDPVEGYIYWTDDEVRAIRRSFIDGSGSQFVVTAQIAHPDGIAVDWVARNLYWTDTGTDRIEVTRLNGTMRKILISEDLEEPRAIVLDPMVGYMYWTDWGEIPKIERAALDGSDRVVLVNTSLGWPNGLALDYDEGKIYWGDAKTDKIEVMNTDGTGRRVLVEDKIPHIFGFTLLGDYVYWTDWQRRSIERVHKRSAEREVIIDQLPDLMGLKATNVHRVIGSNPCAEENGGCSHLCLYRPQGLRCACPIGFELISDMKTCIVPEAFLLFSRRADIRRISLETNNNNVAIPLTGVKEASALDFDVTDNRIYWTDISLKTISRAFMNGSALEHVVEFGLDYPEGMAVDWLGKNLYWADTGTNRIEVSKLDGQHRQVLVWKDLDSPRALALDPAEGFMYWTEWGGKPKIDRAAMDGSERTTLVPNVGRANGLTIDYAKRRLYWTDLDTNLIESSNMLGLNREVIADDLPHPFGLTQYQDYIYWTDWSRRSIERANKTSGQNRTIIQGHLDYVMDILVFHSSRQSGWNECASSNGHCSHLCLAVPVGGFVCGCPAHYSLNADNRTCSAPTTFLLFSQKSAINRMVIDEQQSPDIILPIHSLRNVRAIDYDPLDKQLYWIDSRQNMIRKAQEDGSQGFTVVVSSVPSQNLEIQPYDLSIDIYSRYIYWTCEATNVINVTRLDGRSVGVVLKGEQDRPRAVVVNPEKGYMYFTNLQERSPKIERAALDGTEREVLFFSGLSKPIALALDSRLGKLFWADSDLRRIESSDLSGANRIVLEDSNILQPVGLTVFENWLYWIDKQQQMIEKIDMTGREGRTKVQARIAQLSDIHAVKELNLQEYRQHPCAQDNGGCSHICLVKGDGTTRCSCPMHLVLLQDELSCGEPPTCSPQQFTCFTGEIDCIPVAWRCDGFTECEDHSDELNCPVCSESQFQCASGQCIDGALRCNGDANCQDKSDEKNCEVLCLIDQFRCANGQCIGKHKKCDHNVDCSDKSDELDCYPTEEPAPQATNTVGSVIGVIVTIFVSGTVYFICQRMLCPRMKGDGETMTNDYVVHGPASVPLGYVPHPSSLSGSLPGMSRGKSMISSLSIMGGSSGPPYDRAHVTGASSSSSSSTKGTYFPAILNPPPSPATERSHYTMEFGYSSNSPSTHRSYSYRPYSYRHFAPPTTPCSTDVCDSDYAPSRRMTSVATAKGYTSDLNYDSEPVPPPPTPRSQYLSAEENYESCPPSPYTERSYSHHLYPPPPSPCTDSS

Inhibition of ^125I-Mesd binding to cell surface LRP6 ([1]; 500 nM unlabeled competitor, ^125I-Mesd 5 nM, 2 hours at 4° C.): > 90%
Concentration at which Mesd specific binding saturates ([1]; LRP6-transduced HT1080 cells, 3 hours at 4° C.): > 6.4 nM
^125I-Mesd binding level ([1]; ^125I-Mesd 5 nM, 4 hours at 4° C., LRP6-transduced HT1080 cells): 1320 fmoles/mg cell protein
Effect of excess unlabeled Mesd on ^125I-Mesd binding ([1]; unlabeled Mesd 500 nM, ^125I-Mesd 5 nM, 4° C.): completely eliminated this binding
Effect of excess unlabeled competitor on ^125I-RAP binding to control cells ([2]; 500 nM competitor, control cells expressing vector alone, 4° C.): not
Effect on the LRP6-dependent increase of ^125I-RAP binding ([2]; excess unlabeled Mesd (500 nM), 4 hours at 4° C.): abolished
B1: Mesd: recombinant wild-type mouse Mesd, polyhistidine tail at the N-terminus, lacks the signal peptide, expressed in E. coli (protein)
chain: ADTPGEATPPPRKKKDIRDYNDADMARLLEQWEKDDDIEEGDLPEHKRPSAPIDFSKLDPGKPESILKMTKKGKTLMMFVTVSGNPTEKETEEITSLWQGSLFNANYDVQRFIVGSDRAIFMLRDGSYAWEIKDFLVSQDRCAEVTLEGQMYPGKGGGSKEKNKTKPEKAKKKEGDRKPRASKEDNRAGSRREDL
modifications: left off: small tags and cut ends
notes: recombinant wild-type mouse Mesd, polyhistidine tail at the N-terminus, lacks the signal peptide, expressed in E. coli
